Results published in patent US20260174875A1 (Novo Nordisk A/S, priority 2023, published 2026).
One block for each binder: values may come before it. Numbered stars: 1 amine (or outer) side, 2 acyl side, 3 side chain; on linkers, the order of the positions; unused ones are H or OH. Square brackets hold non-standard residues; d marks the D form. Side chains are listed from the residue outwards. * marks the point of attachment. C20 diacid = O=C(O)CCCCCCCCCCCCCCCCCCC(=O)*; C18 diacid = O=C(O)CCCCCCCCCCCCCCCCC(=O)*; C16 diacid = O=C(O)CCCCCCCCCCCCCCC(=O)*; γGlu = O=C(O)[C@H](CCC(=O)[*:2])N[*:1]; Chem. 28 = not defined here; AEEA = NCCOCCOCC(=O)O; Aib = CC(C)(N)C(=O)O

Columns and labels:
Assay in all cases: cell-based or functional assay
human GLP-1 receptor [1] = molecular target: T1, human GLP-1 receptor (human, UniProt P43220 24-463)
human GIP receptor [2] = molecular target: T2, human GIP receptor (human, UniProt P48546 22-466)
T2 sequence (looked up): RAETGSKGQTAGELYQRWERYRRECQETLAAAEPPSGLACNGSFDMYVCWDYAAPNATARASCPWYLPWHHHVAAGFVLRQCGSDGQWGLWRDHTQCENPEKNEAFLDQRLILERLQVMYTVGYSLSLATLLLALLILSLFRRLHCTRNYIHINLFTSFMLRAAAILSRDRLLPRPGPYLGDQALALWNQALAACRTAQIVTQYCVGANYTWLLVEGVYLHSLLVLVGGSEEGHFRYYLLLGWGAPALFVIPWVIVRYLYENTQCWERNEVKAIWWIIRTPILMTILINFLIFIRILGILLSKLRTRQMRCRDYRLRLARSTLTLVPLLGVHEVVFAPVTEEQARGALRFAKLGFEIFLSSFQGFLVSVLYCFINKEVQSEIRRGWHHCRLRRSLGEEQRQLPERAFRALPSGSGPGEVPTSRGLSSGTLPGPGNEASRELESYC

[3] = molecular target: T3, human amylin-3(a) receptor (human, UniProt P30988 25-474; O60896 24-148)
T3 sequence (looked up) 1: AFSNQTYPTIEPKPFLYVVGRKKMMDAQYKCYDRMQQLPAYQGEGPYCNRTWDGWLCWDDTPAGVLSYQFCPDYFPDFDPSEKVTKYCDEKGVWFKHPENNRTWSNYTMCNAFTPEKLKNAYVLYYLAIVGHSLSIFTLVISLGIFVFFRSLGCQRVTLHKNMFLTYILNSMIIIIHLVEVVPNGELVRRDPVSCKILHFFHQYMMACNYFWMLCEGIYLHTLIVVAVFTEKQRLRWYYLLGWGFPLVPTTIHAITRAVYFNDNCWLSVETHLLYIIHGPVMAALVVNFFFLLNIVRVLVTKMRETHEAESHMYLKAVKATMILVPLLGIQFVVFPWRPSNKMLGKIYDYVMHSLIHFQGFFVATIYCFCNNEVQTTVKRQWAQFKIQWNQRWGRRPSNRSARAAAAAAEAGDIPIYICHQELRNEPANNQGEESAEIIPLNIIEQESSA
T3 sequence (looked up) 2: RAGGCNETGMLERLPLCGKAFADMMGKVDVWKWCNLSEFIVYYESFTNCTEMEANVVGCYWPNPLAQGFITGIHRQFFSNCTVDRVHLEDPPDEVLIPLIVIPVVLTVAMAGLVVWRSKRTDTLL

human GLP-1 receptor [4] = molecular target: T1, human GLP-1 receptor; remark: listed apart in the source
human GIP receptor [5] = molecular target: T2, human GIP receptor; remark: listed apart in the source
[6] = molecular target: T3, human amylin-3(a) receptor; remark: listed apart in the source

- hGLP-1R Potency, no HSA, EC50 [pM] (human GLP-1 receptor [1]): 3.45 pM
- hGIPR Potency, no HSA, EC50 [pM] (human GIP receptor [2]): 1.9 pM
- hAMYR3 Potency, no HSA, EC50 [pM] [3]: 3.43 pM
- hGLP-1R Potency, 1% HSA, EC50 [pM] (human GLP-1 receptor [4]): 20.4 pM
- hGIPR Potency, 1% HSA, EC50 [pM] (human GIP receptor [5]): 8.05 pM
- hAMYR3 Potency, 1% HSA, EC50 [pM] [6]: 78.9 pM
B3: Compound 69 (peptide)
peptide: H[Aib]HGTFTSDYSILLEEQAAREFIEWLLAGGPSRGEASHLSTAQTQRLSAELHK([AEEA-AEEA-γGlu-C18 diacid])LATLPRTETGSGSP-NH2

- hGLP-1R Potency, no HSA, EC50 [pM] (human GLP-1 receptor [1]): 3.71 pM
- hGIPR Potency, no HSA, EC50 [pM] (human GIP receptor [2]): 2.03 pM
- hAMYR3 Potency, no HSA, EC50 [pM] [3]: 1.91 pM
- hGLP-1R Potency, 1% HSA, EC50 [pM] (human GLP-1 receptor [4]): 67.8 pM
- hGIPR Potency, 1% HSA, EC50 [pM] (human GIP receptor [5]): 100 pM
- hAMYR3 Potency, 1% HSA, EC50 [pM] [6]: 109 pM
B4: Compound 64 (peptide)
peptide: H[Aib]HGTFTSDYSILLEEQAAREFIEWLLAGGPSK([AEEA-AEEA-γGlu-C18 diacid])GEASQLSTAALGRLSAELHQLATLPRTETGSGSP-NH2

- hGLP-1R Potency, no HSA, EC50 [pM] (human GLP-1 receptor [1]): 12.1 pM
- hGIPR Potency, no HSA, EC50 [pM] (human GIP receptor [2]): 1.83 pM
- hAMYR3 Potency, no HSA, EC50 [pM] [3]: 2.57 pM
- hGLP-1R Potency, 1% HSA, EC50 [pM] (human GLP-1 receptor [4]): 51.9 pM
- hGIPR Potency, 1% HSA, EC50 [pM] (human GIP receptor [5]): 11.9 pM
- hAMYR3 Potency, 1% HSA, EC50 [pM] [6]: 230 pM
B7: Compound 68 (peptide)
peptide: Y[Aib]EGTFTSDYSILLEEQAAREFIEWLLAGGPSRGEASHLSTAQTQRLSAELHK([AEEA-AEEA-γGlu-C18 diacid])LATLPRTETGSGSP-NH2

- hGLP-1R Potency, no HSA, EC50 [pM] (human GLP-1 receptor [1]): 2.79 pM
- hGIPR Potency, no HSA, EC50 [pM] (human GIP receptor [2]): 1.3 pM
- hAMYR3 Potency, no HSA, EC50 [pM] [3]: 2.97 pM
- hGLP-1R Potency, 1% HSA, EC50 [pM] (human GLP-1 receptor [4]): 14.7 pM
- hGIPR Potency, 1% HSA, EC50 [pM] (human GIP receptor [5]): 16 pM
- hAMYR3 Potency, 1% HSA, EC50 [pM] [6]: 30.8 pM
B8: Compound 61 (peptide)
peptide: H[Aib]HGTFTSDYSILLEEQAAREFIEWLLAGGPSK([AEEA-AEEA-γGlu-C16 diacid])GAPPPSGGGEASHLSTAQTARLSAELHRLADLPRTETGSGSP-NH2

Second part, the binder before the results:

B1: Compound 53 (peptide)
peptide: Y[Aib]EGTFTSDYSILLEEQAAREFIEWLLAGGPSSGAGQAPGQAPGASHLSTAALGRLSAELHK(Chem. 28)LATLPRTETGSGSP-NH2
modifications: reading uncertain
- hGLP-1R Potency, no HSA, EC50 [pM] (human GLP-1 receptor [1]): 23.3 pM
- hGIPR Potency, no HSA, EC50 [pM] (human GIP receptor [2]): 3.25 pM
- hAMYR3 Potency, no HSA, EC50 [pM] [3]: 3.22 pM
- hGLP-1R Potency, 1% HSA, EC50 [pM] (human GLP-1 receptor [4]): 79.2 pM
- hGIPR Potency, 1% HSA, EC50 [pM] (human GIP receptor [5]): 14.6 pM
- hAMYR3 Potency, 1% HSA, EC50 [pM] [6]: 75.9 pM

B2: Compound 58 (peptide)
peptide: Y[Aib]EGTFTSDYSILLEEQAAREFIEWLLAGGPSSGAGQAPGQAPLASHLSTAQTQRLSAELHK(Chem. 28)LATLPRTETGSGSP-NH2
modifications: reading uncertain
- hGLP-1R Potency, no HSA, EC50 [pM] (human GLP-1 receptor [1]): 12.7 pM
- hGIPR Potency, no HSA, EC50 [pM] (human GIP receptor [2]): 1.88 pM
- hAMYR3 Potency, no HSA, EC50 [pM] [3]: 2.91 pM
- hGLP-1R Potency, 1% HSA, EC50 [pM] (human GLP-1 receptor [4]): 25.6 pM
- hGIPR Potency, 1% HSA, EC50 [pM] (human GIP receptor [5]): 7.58 pM
- hAMYR3 Potency, 1% HSA, EC50 [pM] [6]: 134 pM

B5: Compound 55 (peptide)
peptide: Y[Aib]EGTFTSDYSILLEEQAAREFIEWLLAGGPSSGAGQAPGQAPGASHLSTAQTQRLSAK(Chem. 28)LHRLATLPRTETGSGSP-NH2
modifications: reading uncertain
- hGLP-1R Potency, no HSA, EC50 [pM] (human GLP-1 receptor [1]): 23 pM
- hGIPR Potency, no HSA, EC50 [pM] (human GIP receptor [2]): 3 pM
- hAMYR3 Potency, no HSA, EC50 [pM] [3]: 2.22 pM
- hGLP-1R Potency, 1% HSA, EC50 [pM] (human GLP-1 receptor [4]): 45.3 pM
- hGIPR Potency, 1% HSA, EC50 [pM] (human GIP receptor [5]): 10.3 pM
- hAMYR3 Potency, 1% HSA, EC50 [pM] [6]: 34 pM

B6: Compound 60 (peptide)
peptide: Y[Aib]EGTFTSDYSILLEEQAAREFIEWLLAGGPSSGALAQTLAQTLASHLSTAQTQRLSAELHK([AEEA-AEEA-γGlu-C20 diacid])LATLPRTETGSGSP-NH2
- hGLP-1R Potency, no HSA, EC50 [pM] (human GLP-1 receptor [1]): 94.4 pM
- hGIPR Potency, no HSA, EC50 [pM] (human GIP receptor [2]): 6.06 pM
- hAMYR3 Potency, no HSA, EC50 [pM] [3]: 3.85 pM
- hGLP-1R Potency, 1% HSA, EC50 [pM] (human GLP-1 receptor [4]): 173 pM
- hGIPR Potency, 1% HSA, EC50 [pM] (human GIP receptor [5]): 28.3 pM
- hAMYR3 Potency, 1% HSA, EC50 [pM] [6]: 191 pM
